# From the supplement of paper PMC10126150
# ± gives the standard deviation of the averaged measurements.
# System: ATP
# Assay: switch fluorescence ratio, 500 uM ATP over buffer (Cy3 cluster intensity, sum of 5 cycles each) (fold (ratio)); higher = stronger signal-on switching upon ATP binding; sequences stand for … in TCGTCGGCAGCGTCAGATGTGTATAAGAGACAGTTTTTTTTTTTTTTTTTTTTTTTTT…TC
# Details: aptamer strand: ATP DNA aptamer (quencher-CACCTGGGGGAGTATTGCGGAGGAAGG + anchor), 100 nM annealed; ATP concentration: 500 uM
# In short: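 After annealing to 100 nM quencher-labelled ATP aptamer, Cy3-labelled switching-strand clusters on a modified Illumina MiSeq flow-cell were imaged in selection buffer. A second image followed after 15 min with 500 uM ATP at 22 °C, and five such buffer/ATP cycles were done, each separated by NaOH stripping and re-annealing. The fluorescence ratio, averaged per switch-domain sequence, is summed target-cycle over summed buffer-cycle Cy3 intensity per cluster, with clusters outside 100-1000 RFU excluded.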
# 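Also: ATP exposure 15 min at 22 °C before imaging.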
row,Sequence,switch fluorescence ratio
1,AATGGGTGAG,0.982 ± 0.014
2,AATGGTAAAC,1.04 ± 0.018
3,AATGGTGAAT,0.996 ± 0.03
4,AATGGTGCGA,0.975 ± 0.012
5,AATGGTGTGT,1.01 ± 0.018
6,AATGGTTGTG,1 ± 0.022
7,AATGTAAGGT,1.012 ± 0.006
8,AATGTACTTT,1.03 ± 0.032
9,AATGTATTTT,1.01 ± 0.029
10,AATGTCGCGA,1 ± 0.025
11,AATGTGCCGT,1.07 ± 0.04
12,AATGTGGCTA,1.01 ± 0.037
13,AATGTGGGTA,0.982 ± 0.015
14,AATGTGGTAA,0.959 ± 0.043
15,AATGTGGTTG,0.997 ± 0.013
16,AATGTGTTGT,0.998 ± 0.011
17,AATGTTACGC,1.02 ± 0.058
18,AATGTTAGGC,1.02 ± 0.034
19,AATGTTATAG,1.008 ± 0.00014
20,AATGTTATGG,0.9801 ± 0.0031
21,AATGTTATTG,0.99833 ± 0.00099
22,AATTAAGGCC,0.992 ± 0.026
23,AATTAATGGA,0.997 ± 0.036
24,AATTACCATC,1.01 ± 0.017
25,AATTACGGGT,1 ± 0.021

row,Sequence,switch fluorescence ratio
1,AATTACTTTA,1.03 ± 0.029
2,AATTAGACAG,0.9912 ± 0.0047
3,AATTAGAGTA,0.994 ± 0.068
4,AATTAGATAC,1.12 ± 0.074
5,AATTAGGTGC,1.14 ± 0.077
6,AATTAGGTGG,1.01 ± 0.039
7,AATTAGTGGG,0.995 ± 0.025
8,AATTAGTTCG,0.98 ± 0.02
9,AATTATGGGG,0.999 ± 0.032
10,AATTCAGGGG,1.07 ± 0.069
11,AATTCGGGGG,1.04 ± 0.054
12,AATTCGGGGT,1.005 ± 0.0024
13,AATTCGTATC,1.008 ± 0.0024
14,AATTCTGGAA,0.982 ± 0.011
15,AATTGAAAAG,0.982 ± 0.027
16,AATTGAGTAT,1.01 ± 0.015
17,AATTGCCAGA,1.02 ± 0.02
18,AATTGCCAGT,1.01 ± 0.018
19,AATTGCGGTA,0.982 ± 0.05
20,AATTGGAAAA,0.987 ± 0.019
21,AATTGGATGG,1.02 ± 0.047
22,AATTGGGATG,0.975 ± 0.034
23,AATTGGTACG,0.992 ± 0.021
24,AATTGGTTTT,0.982 ± 0.034
25,AATTGTGATG,1.01 ± 0.02

row,Sequence,switch fluorescence ratio
1,AATTGTGTAC,1.052 ± 0.0018
2,AATTGTTGTT,0.998 ± 0.033
3,AATTGTTTCA,0.974 ± 0.016
4,AATTGTTTGT,0.998 ± 0.016
5,AATTTAAAGC,1.03 ± 0.07
6,AATTTAAATG,0.977 ± 0.03
7,AATTTAAGCG,1.01 ± 0.017
8,AATTTAATAT,1.01 ± 0.016
9,AATTTACATG,1.02 ± 0.024
10,AATTTACGAT,1.02 ± 0.014
11,AATTTACTGT,1.01 ± 0.023
12,AATTTATCCG,1.02 ± 0.059
13,AATTTATGC,0.97 ± 0.011
14,AATTTCATTG,0.9986 ± 0.0035
15,AATTTGAGAA,0.998 ± 0.029
16,AATTTGGCAC,1.05 ± 0.09
17,AATTTGGCAG,0.99 ± 0.025
18,AATTTGGTCC,1.04 ± 0.058
19,AATTTGTGCG,0.991 ± 0.012
20,AATTTTAGGA,0.98 ± 0.028
21,AATTTTATAC,1.02 ± 0.016
22,AATTTTATTG,0.988 ± 0.05
23,AATTTTCCAC,1.02 ± 0.043
24,AATTTTGGAC,1.01 ± 0.017
25,AATTTTGGGT,1 ± 0.041

row,Sequence,switch fluorescence ratio
1,AATTTTGGTT,0.99 ± 0.017
2,AATTTTTACT,1.05 ± 0.1
3,AATTTTTCGG,0.994 ± 0.042
4,AATTTTTGTG,0.988 ± 0.022
5,AATTTTTTAT,0.979 ± 0.036
6,AATTTTTTCC,1.41 ± 0.53
7,ACAAAAAGGG,1.02 ± 0.039
8,ACAAAAGGGG,1.16 ± 0.22
9,ACAAACACTT,1.158 ± 0.01
10,ACAAAGACCT,1.42 ± 0.031
11,ACAACGGGTG,2.1 ± 0.24
12,ACAACGGTCT,1.042 ± 0.0035
13,ACAAGAGGGT,1.002 ± 0.0051
14,ACAAGAGGTT,0.995 ± 0.018
15,ACAAGATACA,1.03 ± 0.021
16,ACAAGATTGG,1.01 ± 0.041
17,ACAAGGAGGT,0.983 ± 0.005
18,ACAAGGCAGA,1.04 ± 0.013
19,ACAAGGGTC,0.964 ± 0.025
20,ACAAGGTGAC,1.082 ± 0.0021
21,ACAAGTAAGC,1.048 ± 0.0067
22,ACAATAACAC,1.095 ± 0.0093
23,ACAATATAGA,1.0126 ± 8.1e-07
24,ACAATCGGCG,1.02 ± 0.0072
25,ACAATGTCT,0.996 ± 0.014

row,Sequence,switch fluorescence ratio
1,ACAATGTGGT,0.951 ± 0.018
2,ACAATTTATT,1.02 ± 0.051
3,ACACAATTTT,1.01 ± 0.026
4,ACACACCAGG,2.98 ± 0.18
5,ACACAGCGGC,1.16 ± 0.046
6,ACACAGGTAT,1.12 ± 0.059
7,ACACATCATA,1.07 ± 0.032
8,ACACATTGGA,1.03 ± 0.0023
9,ACACCCAAGT,1.21 ± 0.14
10,ACACCTCCAA,1.04 ± 0.027
11,ACACGAGGCT,1.04 ± 0.029
12,ACACTCACCC,1.57 ± 0.36
13,ACACTCATGG,1.03 ± 0.068
14,ACACTCATTG,1.06 ± 0.074
15,ACACTTTTCG,1.01 ± 0.035
16,ACAGAATCGA,1.02 ± 0.032
17,ACAGAATCGG,1.03 ± 0.018
18,ACAGACAATG,1.02 ± 0.045
19,ACAGACAGGC,1.05 ± 0.062
20,ACAGACTTTG,1.01 ± 0.062
21,ACAGAGGCAC,1.02 ± 0.062
22,ACAGAGGGAG,1.02 ± 0.011
23,ACAGATTTAG,0.972 ± 0.014
24,ACAGCAGGGG,1.25 ± 0.17
25,ACAGCTAAAA,1.02 ± 0.016

row,Sequence,switch fluorescence ratio
1,ACAGGAAAAA,0.976 ± 0.084
2,ACAGGAAACG,1.042 ± 0.0014
3,ACAGGACAGC,1.14 ± 0.049
4,ACAGGACGTT,1.11 ± 0.028
5,ACAGGAGCGT,1.1017 ± 0.00065
6,ACAGGAGTTT,0.999 ± 0.01
7,ACAGGATCCG,1.01 ± 0.00021
8,ACAGGCCAGC,1.01 ± 0.022
9,ACAGGCTCCG,1.05 ± 0.038
10,ACAGGGGAGT,1.03 ± 0.02
11,ACAGGGGGTG,1.07 ± 0.035
12,ACAGGGGTGG,1.02 ± 0.021
13,ACAGGTTAGA,1.05 ± 0.014
14,ACAGTAGGAA,1.08 ± 0.035
15,ACAGTCGTCT,0.949 ± 0.042
16,ACAGTCTGCG,0.962 ± 0.037
17,ACAGTGCATT,1.03 ± 0.025
18,ACAGTGTGTC,0.994 ± 0.042
19,ACAGTTATTA,1.03 ± 0.028
20,ACAGTTGGTT,0.99 ± 0.06
21,ACAGTTTTTT,0.98861 ± 1.6e-05
22,ACATAAGTG,1.02 ± 0.019
23,ACATAAGTGG,1.01 ± 0.011
24,ACATAATGTG,1.06 ± 0.013
25,ACATAGGGCT,0.987 ± 0.04

row,Sequence,switch fluorescence ratio
1,ACATAGTGCT,1.004 ± 0.0077
2,ACATATATGA,1.06 ± 0.031
3,ACATATGGGT,1.01 ± 0.039
4,ACATCAGAAT,1.01 ± 0.028
5,ACATCATACG,1.233 ± 0.01
6,ACATCCAACG,1.12 ± 0.028
7,ACATCCGGAC,1.343 ± 0.011
8,ACATCCGTCG,1.06 ± 0.022
9,ACATCCTACT,1.15 ± 0.041
10,ACATCGACTG,1.02 ± 0.048
11,ACATCGTGTT,0.977 ± 0.033
12,ACATCTCGAT,0.996 ± 0.015
13,ACATGAACCT,2.14 ± 0.077
14,ACATGACGGT,1.06 ± 0.027
15,ACATGCACGG,1.268 ± 0.0013
16,ACATGCGGTG,1.002 ± 0.0033
17,ACATGGCTAA,1.08 ± 0.068
18,ACATGGGTGG,0.962 ± 0.051
19,ACATGGTAGT,0.97 ± 0.041
20,ACATGGTTAG,0.987 ± 0.03
21,ACATGTCTGG,1.001 ± 0.0016
22,ACATGTGCGT,1.004 ± 0.01
23,ACATTAGTAG,1.02 ± 0.033
24,ACATTAGTTA,1.05 ± 0.033
25,ACATTATATG,1.01 ± 0.043

row,Sequence,switch fluorescence ratio
1,ACATTCGACC,1.11 ± 0.062
2,ACATTGGGAT,0.998 ± 0.022
3,ACATTGTACG,1.09 ± 0.019
4,ACATTTTTAG,1.01 ± 0.013
5,ACCAAAAATG,1.1 ± 0.13
6,ACCAACTCAG,1.24 ± 0.037
7,ACCAAGTATC,1.04 ± 0.036
8,ACCAAGTTCA,1.02 ± 0.014
9,ACCAAGTTGG,0.993 ± 0.016
10,ACCAGCTTTC,1.16 ± 0.015
11,ACCAGGACTA,1.038 ± 0.0017
12,ACCAGGGGGG,1.07 ± 0.058
13,ACCAGGTGGT,1.78 ± 1.1
14,ACCATAGAAT,1.009 ± 0.0094
15,ACCATATGGA,1.02 ± 0.064
16,ACCATCAAGG,0.9815 ± 0.0016
17,ACCATTAATT,0.991 ± 0.029
18,ACCATTGTGA,0.998 ± 0.014
19,ACCATTTGTC,1.06 ± 0.094
20,ACCCATGAAG,0.989 ± 0.015
21,ACCCGAGTTT,1 ± 0.018
22,ACCCGGACCT,1.34 ± 0.059
23,ACCCGGCTTA,1.19 ± 0.22
24,ACCCTAGACG,1.03 ± 0.045
25,ACCCTGCAGA,1.06 ± 0.0064
